Literature values, collected in article PMC7602980 (Biomolecules, 2020).

Target: Cx43CT
Details: compared with CaM; no reference printed beside the value; Drebrin–Cx43 interaction ref [78]; read-out: binding affinity Drebrin for Cx43CT, as quoted in discussion
From the text: While CaM can be seen as mimicking P ...

Kd: ~300 µM
B1: Drebrin: developmentally regulated brain protein, linker between Cx43 gap junctions and actin/submembrane cytoskeleton (protein, UniProt Q16643 2-649, looked up)
Drebrin: AGVSFSGHRLELLAAYEEVIREESAADWALYTYEDGSDDLKLAASGEGGLQELSGHFENQKVMYGFCSVKDSQAALPKYVLINWVGEDVPDARKCACASHVAKVAEFFQGVDVIVNASSVEDIDAGAIGQRLSNGLARLSSPVLHRLRLREDENAEPVGTTYQKTDAAVEMKRINREQFWEQAKKEEELRKEEERKKALDERLRFEQERMEQERQEQEERERRYREREQQIEEHRRKQQTLEAEEAKRRLKEQSIFGDHRDEEEETHMKKSESEVEEAAAIIAQRPDNPREFFKQQERVASASAGSCDVPSPFNHRPGSHLDSHRRMAPTPIPTRSPSDSSTASTPVAEQIERALDEVTSSQPPPLPPPPPPAQETQEPSPILDSEETRAAAPQAWAGPMEEPPQAQAPPRGPGSPAEDLMFMESAEQAVLAAPVEPATADATEIHDAADTIETDTATADTTVANNVPPAATSLIDLWPGNGEGASTLQGEPRAPTPPSGTEVTLAEVPLLDEVAPEPLLPAGEGCATLLNFDELPEPPATFCDPEEVEGESLAAPQTPTLPSALEELEQEQEPEPHLLTNGETTQKEGTQASEGYFSQSQEEEFAQSEELCAKAPPPVFYNKPPEIDITCWDADPVPEEEEGFEGGD
